From patent publication US20260345804 (published 2026)
Substitutions are numbered along the chain they refer to. Where two headings read alike, the source gives them in different places.

Key:
Experiment in all cases: SPR, 25C
[1] = target: huPD1-ECD_Fc-knob/hole (P1AD9704) (human)
[2] = target: huPD1-ECD_Fc-knob/hole (P1AD9704) (human); remark: listed apart in the source
[3] = target: huPD1-ECD_Fc-knob/hole (P1AD9704) (human); remark: listed apart in the source
[4] = target: T1, human IL2v G4S avi his (P1AG0879) (human)
T1 chain: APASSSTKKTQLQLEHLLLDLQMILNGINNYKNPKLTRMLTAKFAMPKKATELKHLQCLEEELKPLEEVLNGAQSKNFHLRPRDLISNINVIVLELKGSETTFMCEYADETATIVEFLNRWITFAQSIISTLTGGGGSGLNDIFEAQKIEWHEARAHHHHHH

B1: P1AI0357 PD1-1030-VH_I58T (antibody, V domains shown)
VH: EVQLLESGGGLVQPGGSLRLSCAASGFSFSSYTMSWVRQAPGKGLEWVATISGGGRDTYYPDSVKGRFTISRDNSKNTLYLQMNSLRAEDTAVYYCVLLTGRVYFALDSWGQGTLVTVSS
VL: DIVMTQSPDSLAVSLGERATINCKASESVDTSDNSFIHWYQQKPGQSPKLLIYRSSTLESGVPDRFSGSGSGTDFTLTISSLQAEDVAVYYCQQNYDVPWTFGQGTKVEIKR
Binder B1 has a Kd [1] of 0.2 nM.

B2: P1AG9606 PD1 IgG-IL2v aIL2 MT204 scFv-PQARK (antibody)
chain 1: EVQLLESGGGLVQPGGSLRLSCAASGFSFSSYTMSWVRQAPGKGLEWVATISGGGRDIYYPDSVKGRFTISRDNSKNTLYLQMNSLRAEDTAVYYCVLLTGRVYFALDSWGQGTLVTVSSASTKGPSVFPLAPSSKSTSGGTAALGCLVKDYFPEPVTVSWNSGALTSGVHTFPAVLQSSGLYSLSSVVTVPSSSLGTQTYICNVNHKPSNTKVDKKVEPKSCDKTHTCPPCPAPEAAGGPSVFLFPPKPKDTLMISRTPEVTCVVVDVSHEDPEVKFNWYVDGVEVHNAKTKPREEQYNSTYRVVSVLTVLHQDWLNGKEYKCKVSNKALGAPIEKTISKAKGQPREPQVCTLPPSRDELTKNQVSLSCAVKGFYPSDIAVEWESNGQPENNYKTTPPVLDSDGSFFLVSKLTVDKSRWQQGNVFSCSVMHEALHNHYTQKSLSLSPG
chain 2: DIVMTQSPDSLAVSLGERATINCKASESVDTSDNSFIHWYQQKPGQSPKLLIYRSSTLESGVPDRFSGSGSGTDFTLTISSLQAEDVAVYYCQQNYDVPWTFGQGTKVEIKRTVAAPSVFIFPPSDEQLKSGTASVVCLLNNFYPREAKVQWKVDNALQSGNSQESVTEQDSKDSTYSLSSTLTLSKADYEKHKVYACEVTHQGLSSPVTKSFNRGEC
modifications: PD1-binding arm; immunoconjugate, knob chain SEQ59 carries masked IL2v
In the case of B2, the Kd [2] is reported as 0.19 nM.

B3: P1AH4160 PD1-376_VL7_VH1_2_4 (antibody, V domains shown)
VH: B1 VH with L5V, S28T, A49S, T50A, T58I
VL: B1 VL with S55E, L58Q
B3 was tested, and the Kd [3] was 1.2 nM.

B4: P1AF7506 OA MT204 IgG PG LALA (antibody, V domains shown)
VH: EVQLVESGGGLVQPGGSLRLSCAASGFTFSSYTLAWVRQAPGKGLEWVAAIDSSSYTYSPDTVRGRFTISRDNAKNSLYLQMNSLRAEDTAVYYCARDSNWDALDYWGQGTTVTVSS
VL: DIQMTQSPSSLSASVGDRVTITCKASQNVGTNVGWYQQKPGKAPKALIYSASFRYSGVPSRFSGSGSGTDFTLTISSLQPEDFATYYCQQYYTYPYTFGGGTKVEIKR
B4 showed a Kd [4] of 0.27 nM.

B5: P1AI0359 PD1-1030-VH_P61A (antibody, V domains shown)
VH: B1 VH with T58I, P61A
VL: B1 VL
Work on B5 yielded a Kd [1] of 0.2 nM.

B6: P1AI1650 PD1-376_VL2_VH4_I58T_P61A (antibody, V domains shown)
VH: B1 VH with A49S, T50A, P61A
VL: B1 VL with S55A
B6 was tested, and the Kd [2] was 0.127 nM.

B7: P1AI0356 PD1-1030-VH_I58L_D62E (antibody, V domains shown)
VH: B1 VH with T58L, D62E
VL: B1 VL
Work on B7 yielded a Kd [1] of 0.2 nM.

B8: P1AI0360 PD1-1030-VH_Y60F_D62E (antibody, V domains shown)
VH: B1 VH with T58I, Y60F, D62E
VL: B1 VL
With B8 the Kd [1] was 0.3 nM.

B9: P1AI0358 PD1-1030-VH_I58T_P61A (antibody, V domains shown)
VH: B1 VH with P61A
VL: B1 VL
Work on B9 yielded a Kd [1] of 0.3 nM.

B10: P1AH4161 PD1-376_VL2_VH1_2_3_4 (antibody, V domains shown)
VH: B1 VH with L5V, S28T, T33A, A49S, T50A, T58I
VL: B1 VL with S55A
Work on B10 yielded a Kd [3] of 0.4 nM.

B11: P1AI1648 PD1-376_VL2_VH4_I58L_D62E (antibody, V domains shown)
VH: B1 VH with A49S, T50A, T58L, D62E
VL: B1 VL with S55A
Work on B11 yielded a Kd [2] of 0.144 nM.

B12: P1AH2050 MT204_VL1-combo VH2 & VH6 IgG PG LALA (antibody, V domains shown)
VH: B4 VH with R64K, A74S, S77T
VL: B4 VL with K24R, N28G
B12 gave a Kd [4] of 0.427 nM.

B13: P1AI1652 PD1-376_VL2_VH4_Y60F_D62E (antibody, V domains shown)
VH: B1 VH with A49S, T50A, T58I, Y60F, D62E
VL: B1 VL with S55A
Work on B13 yielded a Kd [2] of 0.162 nM.

B14: P1AH4157 PD1-376_VL2_VH4 (antibody, V domains shown)
VH: B1 VH with A49S, T50A, T58I
VL: B1 VL with S55A
Work on B14 yielded a Kd [2] of 0.126 nM and a Kd [3] of 0.2 nM.

B15: P1AH2051 MT204_VL1a-combo VH2 & VH6 IgG PG LALA (antibody, V domains shown)
VH: B4 VH with R64K, A74S, S77T
VL: B4 VL with K24R, N28G, R54L
With B15 the Kd [4] was 0.101 nM.

B16: P1AH4158 PD1-376_VL7_VH4 (antibody, V domains shown)
VH: B1 VH with A49S, T50A, T58I
VL: B1 VL with S55E, L58Q
B16 gave a Kd [3] of 1.5 nM.

B17: P1AI1649 PD1-376_VL2_VH4_I58T (antibody, V domains shown)
VH: B1 VH with A49S, T50A
VL: B1 VL with S55A
Binder B17 has a Kd [2] of 0.111 nM.

B18: P1AA6888 one-shot humanized PD1-0103 (antibody)
chain 1: not shown
chain 2: B2 chain 2
B18 gave a Kd [3] of 0.2 nM and a Kd [1] of 0.3 nM.

B19: P1AH4159 PD1-376_VL2_7_VH4 (antibody, V domains shown)
VH: B1 VH with A49S, T50A, T58I
VL: B1 VL with S55A, L58Q
B19 gave a Kd [3] of 0.2 nM.

B20: P1AI1651 PD1-376_VL2_VH4_P61A (antibody, V domains shown)
VH: B1 VH with A49S, T50A, T58I, P61A
VL: B1 VL with S55A
Binder B20 has a Kd [2] of 0.114 nM.

B21: P1AH2052 MT204_VL1b-combo VH2 & VH6 IgG PG LALA (antibody, V domains shown)
VH: B4 VH with R64K, A74S, S77T
VL: B4 VL with K24R, N28G, A46L, R54L
Work on B21 yielded a Kd [4] of 0.995 nM.
